In publication PMC2807882, “Conservation of DNA-binding specificity and oligomerisation properties within the p53 family”:

How the values were obtained:
Conditions in all cases: protein: recombinant; tags: N-terminal 6xHis-lipoyl-TEV tag, cleaved; chain copies: 4
ΔNp63γ [1] = biological target: T1, ΔNp63γ (Homo sapiens, UniProt Q9H3D4-6 1-393); experiment: anisotropy competition; 25 mM NaPi, 225 mM NaCl, 10% v/v glycerol, 5 mM DTT, 0.2 mg/mL BSA, 22°C; 20 nM labelled DNA; pH not stated for the binding assay
T1 sequence: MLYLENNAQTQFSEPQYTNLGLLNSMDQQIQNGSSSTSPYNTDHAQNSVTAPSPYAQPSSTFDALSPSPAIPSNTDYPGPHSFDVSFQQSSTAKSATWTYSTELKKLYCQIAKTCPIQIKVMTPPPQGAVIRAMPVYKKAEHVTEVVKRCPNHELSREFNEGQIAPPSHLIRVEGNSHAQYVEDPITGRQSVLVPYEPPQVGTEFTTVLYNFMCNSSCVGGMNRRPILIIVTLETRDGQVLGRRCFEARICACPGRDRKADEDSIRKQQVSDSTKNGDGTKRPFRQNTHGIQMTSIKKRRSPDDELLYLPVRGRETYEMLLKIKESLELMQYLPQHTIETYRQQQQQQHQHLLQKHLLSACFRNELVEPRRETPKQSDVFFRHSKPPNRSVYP

ΔNp63α = biological target: T2, ΔNp63α (Homo sapiens, UniProt Q9H3D4-2 1-586); experiment: as above
T2 sequence: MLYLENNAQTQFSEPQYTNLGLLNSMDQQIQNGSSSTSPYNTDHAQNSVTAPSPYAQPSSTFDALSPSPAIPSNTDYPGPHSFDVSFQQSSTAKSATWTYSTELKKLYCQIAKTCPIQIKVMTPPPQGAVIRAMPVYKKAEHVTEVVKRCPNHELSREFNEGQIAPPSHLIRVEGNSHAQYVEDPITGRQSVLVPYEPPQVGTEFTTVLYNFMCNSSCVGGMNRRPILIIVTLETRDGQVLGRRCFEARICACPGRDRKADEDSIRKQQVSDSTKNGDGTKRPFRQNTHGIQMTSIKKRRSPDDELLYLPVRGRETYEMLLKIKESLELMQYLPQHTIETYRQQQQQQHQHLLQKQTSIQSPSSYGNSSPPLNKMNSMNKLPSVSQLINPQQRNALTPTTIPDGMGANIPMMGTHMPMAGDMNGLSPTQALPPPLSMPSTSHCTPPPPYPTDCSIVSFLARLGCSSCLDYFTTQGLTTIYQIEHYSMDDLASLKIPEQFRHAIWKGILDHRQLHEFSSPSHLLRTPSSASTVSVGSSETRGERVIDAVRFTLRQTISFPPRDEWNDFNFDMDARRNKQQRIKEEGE

Hsp53 [2] = biological target: T3, Hsp53 (Homo sapiens, UniProt P04637 1-393); experiment: as above
T3 sequence (P04637 whole entry): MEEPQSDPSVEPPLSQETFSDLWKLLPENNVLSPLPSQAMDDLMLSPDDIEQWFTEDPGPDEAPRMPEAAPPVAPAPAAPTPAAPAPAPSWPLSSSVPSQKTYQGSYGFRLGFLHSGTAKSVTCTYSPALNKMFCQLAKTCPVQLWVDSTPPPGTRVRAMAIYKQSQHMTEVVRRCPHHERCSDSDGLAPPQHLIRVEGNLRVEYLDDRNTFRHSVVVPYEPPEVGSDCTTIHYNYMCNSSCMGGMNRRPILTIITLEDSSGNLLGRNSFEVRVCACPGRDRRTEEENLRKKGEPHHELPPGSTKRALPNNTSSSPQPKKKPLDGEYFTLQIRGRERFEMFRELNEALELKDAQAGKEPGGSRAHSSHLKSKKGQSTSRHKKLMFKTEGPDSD

ΔNp63γ [3] = biological target: T1, ΔNp63γ; experiment: fluorescence anisotropy competition titration; 25 mM sodium phosphate (purification buffer pH 7.2), 225 mM NaCl, 10% v/v glycerol, 5 mM DTT, 0.2 mg/mL BSA, 22 C
Mmp53 = Mmp53 (Mus musculus, UniProt P02340 1-390); experiment: as above
Mmp53, sequence (P02340 whole entry): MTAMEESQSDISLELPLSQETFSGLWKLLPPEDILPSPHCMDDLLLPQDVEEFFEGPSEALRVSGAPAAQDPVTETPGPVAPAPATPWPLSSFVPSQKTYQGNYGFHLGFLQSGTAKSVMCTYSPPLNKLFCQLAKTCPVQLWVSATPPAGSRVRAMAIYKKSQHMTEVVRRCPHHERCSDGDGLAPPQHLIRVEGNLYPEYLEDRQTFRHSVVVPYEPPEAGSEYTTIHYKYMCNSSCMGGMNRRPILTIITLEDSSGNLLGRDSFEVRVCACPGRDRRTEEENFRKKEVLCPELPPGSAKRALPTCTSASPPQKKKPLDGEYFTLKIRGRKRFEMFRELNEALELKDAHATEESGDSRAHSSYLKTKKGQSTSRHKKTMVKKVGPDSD

Xlp53 = Xlp53 (Xenopus laevis, UniProt Q7T1D0 1-362); experiment: as above
Xlp53, sequence (Q7T1D0 entry or part of it): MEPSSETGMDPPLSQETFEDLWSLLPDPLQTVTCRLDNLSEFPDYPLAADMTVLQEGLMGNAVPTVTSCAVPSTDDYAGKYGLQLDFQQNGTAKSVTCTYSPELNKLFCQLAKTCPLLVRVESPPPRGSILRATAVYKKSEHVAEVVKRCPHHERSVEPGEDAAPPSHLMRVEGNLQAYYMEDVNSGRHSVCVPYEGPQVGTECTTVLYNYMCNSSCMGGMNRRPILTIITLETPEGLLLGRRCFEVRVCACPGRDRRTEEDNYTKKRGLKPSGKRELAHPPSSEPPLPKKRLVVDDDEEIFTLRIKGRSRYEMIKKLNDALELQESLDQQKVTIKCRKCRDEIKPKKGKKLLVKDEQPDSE

Hsp53 [4] = biological target: T3, Hsp53; experiment: as above
p73CT = biological target: T4, p73CT (Homo sapiens, UniProt O15350 104-383); experiment: as above
T4 sequence: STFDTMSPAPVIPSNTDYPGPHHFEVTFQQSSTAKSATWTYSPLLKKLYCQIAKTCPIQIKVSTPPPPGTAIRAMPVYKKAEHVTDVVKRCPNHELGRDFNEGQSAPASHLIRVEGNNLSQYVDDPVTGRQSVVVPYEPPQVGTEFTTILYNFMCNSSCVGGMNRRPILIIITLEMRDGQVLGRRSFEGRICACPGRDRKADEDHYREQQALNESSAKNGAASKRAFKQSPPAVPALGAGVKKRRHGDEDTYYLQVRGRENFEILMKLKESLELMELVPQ

ΔNp73β = biological target: T5, ΔNp73β (Homo sapiens, UniProt O15350-9 1-450); experiment: as above
T5 sequence: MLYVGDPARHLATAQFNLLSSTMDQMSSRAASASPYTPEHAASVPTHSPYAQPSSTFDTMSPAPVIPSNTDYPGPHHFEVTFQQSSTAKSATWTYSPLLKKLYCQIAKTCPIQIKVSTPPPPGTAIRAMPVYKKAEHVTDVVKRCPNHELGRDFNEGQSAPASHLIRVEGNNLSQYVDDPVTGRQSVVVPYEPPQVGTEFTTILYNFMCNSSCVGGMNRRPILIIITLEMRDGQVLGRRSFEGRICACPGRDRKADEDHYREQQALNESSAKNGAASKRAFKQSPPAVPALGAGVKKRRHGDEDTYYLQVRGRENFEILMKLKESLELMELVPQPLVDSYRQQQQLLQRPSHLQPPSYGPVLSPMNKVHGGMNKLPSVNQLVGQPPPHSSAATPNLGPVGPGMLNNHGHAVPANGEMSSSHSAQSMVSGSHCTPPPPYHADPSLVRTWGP

B1: Ref competitor (dsDNA)
DNA 1: CGCGGACATGTCCGGACATGTCCCGC
DNA 2: GCGGGACATGTCCGGACATGTCCGCG
In the case of B1, the Kd (ΔNp63γ [1]) is reported as -7.48 log10(M), the Kd (ΔNp63α) is reported as -7.21 log10(M) and the Kd (Hsp53 [2]) is reported as -7.12 log10(M). It also gave a Kd (ΔNp63γ [3]) of 33.1 nM, a Kd (Mmp53) of 132 nM and a Kd (Xlp53) of 83.2 nM. The Kd (Hsp53 [4]) was 75.9 nM, the Kd (p73CT) was 148 nM and the Kd (ΔNp73β) was 24 nM.
